Data: US20220195015A1 (published 2022)

Molecular target: SARS-CoV-2 spike protein receptor binding domain (RBD) (SARS-CoV-2, UniProt P0DTC2 319-539)
Experiment: ELISA on coated RBD protein

Row | Binder | EC50
1 | C051 (antibody, V domains shown) VH: EVQLVESGGGLIQAGGSLRLSCAASGFGVRNNYMSWVRQAPGKGLEWVSVIYSGGTTYYADSVKGRFTISRDNSKNTVFLQMNSLRAEDTAVYYCAREGDVEGFSDLWSGYSRDRYYFDYWGQGTLVTVSS VL: QSALTQPASVSGSPGQSITFSCTGTSSDVGGYNYVSWYQQYPGKAPKLLIYDVTNRPSGVSDRFSGSKSGNTASLTISGLQAEDEADYYCSSFTSSNTRVFGTGTKVTVL | 1.65 ng/mL
2 | C050 (antibody, V domains shown) VH: EVQLVESGGGLFQPGGSLRLSCAASGFSVRNNYVSWVRQAPGKGLEWVSVIYSGGTTYYADSVKGRFTISRDISENTLYLQMNSLRAEDTAVYYCAREGDVEGLHDFWSGYSRDRYYFDYWGQGTLVTVSS VL: QSALTQPASVSGSPGQSIIISCTGTSGDIGGYNYVSWYQQHPGKAPKLMIYDVSFRPSGVSNRFSGSKSDNTASLTISGLQAEDEADYYCSSFTGNNTRVFGTGTKVTVL | 1.93 ng/mL

Molecular target: SARS-CoV-2 receptor binding domain (RBD), wild type (SARS-CoV-2, UniProt P0DTC2 319-539)
Experiment: ELISA, RBD protein coated, mAb titrated

Row | Binder | EC50
3 | C088 (antibody, V domains shown) VH: QVQLVQSGAEAKKPGASVKVSCKTSGYTFTNYFMHWVRQAPGQGPEWMGIIDSSDGGASYAQKFQGRVTMTRDTSTSTVYMELRSLKFEDTAVYYCARASTSTTSWSDALSLGSWGQGTLVTVSS VL: QSVLTQPPSVSGAPGQRVTISCTGSSSNIGGGSVVHWYQQLPGTAPKLLIYANSNRPSGVPDRFSGSKSGTSASLAIAGLQAEDEADYYCQSWDNGLSASGVVFGGGTKLTVL | 2.44 ng/mL
4 | C069 (antibody, V domains shown) VH: QVQLVQSGAEVKKPGSSVNVSCKASGGTFSTYAIHWVRQAPGQGLEWMGGIIPLFHTANYAQKFQGRVTITADESTSTAYMELSSLRSEDTAMYYCAINTQWDLVPRWGRGTLVTVSS VL: EIVLTQSPGTLSLAPGERATLSCRASQSVNSNYLAWYQQKPGQAPRLLIYGASSRATGIPDRFSGSGSGTDFTLTISRLEPEDFAVYYCQQYGFSLYSFGQGTKLEIK | 381 ng/mL
5 | C522 (antibody, V domains shown) VH: EVQLVESGGGLIQPGGSLRLSCAASEFIVSRNYMSWVRQAPGKGLEWVSVIYSGGSTFYADSVKGRFTISRDESKNTLYLQMNSLRAEDTAIYYCARDRGGGILDYWGQGTLVTVS VL: DIQMTQSPSSLSASVGDRVTITCQASQDINIFLNWYQQKPGKAPKLLIYDASSLETGVPSRFSGSGSGTDFTFTISSLQPEDFATYYCQQYGNLPKYTFGQGTKLEIK | 0.93 ng/mL
6 | C064 (antibody, V domains shown) VH: EVQLLESGGDLVQPGGSLRLSCAASGFTFSNYAMSWVRQAPGKGLEWVSAISGSGGNTYYADSVKGRFTISRDNSKNTLYLQMNSLRAEDTAVYYCAKAVHYGGNSDRRFSEPSAPFDYWGQGTLVTVSS VL: QSALTQPASVSGSPGQSITISCTGTSSDVGSYNLVSWYQQHPGKAPKLMIYEGSKRPSGVSNRFSGSKSGNTASLTISGLQAEDEADYYCCSYAGSSTPYVFGTGTKVTVL | 363 ng/mL
7 | C519 (antibody, V domains shown) VH: QVQLQESGPGLVKPSETLSLTCAVSGGSISSYYWSWIRQPPGKGLEWIGYIDTSGSTNYNPSLKSRVTMSVDTSKNQFSLNVNSVTAADTAVYFCGVCAGDCYAASVFDYRGQGTLVTVSS VL: DIQMTQSPSSLSASVGDRVTITCQASQDIIFYLNWYQQKPGKAPKLLIYDASNLKTGVPSRFSGSGSGTDFAFTISSLQPEDIATYYCQQYDNLPLTFGGGTKVEIK | 1.06 ng/mL
8 | C035 (antibody, V domains shown) VH: EVQLVESGGGLVQPGGSLRLSCAASGFIFSSYWMTWVRQAPGKGLEWVASIKYNGNERNYVDSVKGRFTISRDNARNSLFLQLNNLGAEDTAVYYCARQPESTIWYYFDYWGQGTLVTVSS VL: SYELTQPPSVSVSPGQTARVTCSGHALPDQYTYWYQQRPGRAPVLVIYVNNQRPSGIPDRFSATTSGTTVTLTISGVQAEDEADYYCQSADSSGSYVVFGGGTKLTVL | 15.2 ng/mL
9 | C091 (antibody, V domains shown) VH: QVQLVQSGAEVKKPGSSVKVSCKASGGTFSSYTISWVRQAPGQGLEWMGRIIPILGIANYAQKFQGRVTITADKSTSTAYMELSSLRSEDTAVYYCARDSGYSGYGSTYYMDVWGKGTTVTVSS VL: QSVLTQPPSVSGAPGQRVTISCTGSSSNIGAGYDVHWYQQLPGTAPKLLIYGNSNRPSGVPDRFSGSKSGTSASLAITGLQAEDEADYYCQSYDSSLSGSVFGTVTKVTVL | 89.5 ng/mL
10 | C092 (antibody, V domains shown) VH: QVQLVQSGAEVKKPGSSVKVSCKASGGSFTNHFISWVRQAPGQGLEWMGRIIPILGTANYAQNFQGRVMMTADKSTSTAYMELSSLRSEDTAVYYCARDSGYSGYGSTYYMDVWGKGTTVTVSS VL: QSVLTQPPSVSGAPGQRVTISCTGSNSNIGAGYDVHWYQQLPGAAPKLLIYGNNNRPSGVPDRFSGSKSDTSASLAITGLQVEDEADYYCQSYDSSLSDSVFGSGTKVTVL | 7.07 ng/mL
11 | C083 (antibody, V domains shown) VH: EVQLVESGGGLVKPGGSLRLSCAASGFTFSSYSMNWVRQAPGKGLEWVSSISSSTSYIYYADSVKGRFTISRDNAKNSLYLQMNSLRAEDTAVYYCARERYGDNWGQGTLVTVSS VL: QLVLTQSPSASASLGASVKLTCTLSSGHSSYAIAWHQQQPEKGPRYLMSLNSDGSHSKGDGIPDRFSGSSSGAERYLTISSLQSEDEADYYCQTWGPWVFGGGTKLTVL | 25.1 ng/mL
12 | C065 (antibody, V domains shown) VH: QVQLQESGPGLVKPSQTLSLTCTVSGGSISSSNYYWSWIRQHPGKGLEWIGYIDYSGGTYYNPSLKSRVTISVDTSKNQFSLKLSSVTAADTAVYYCARVSTTVTTYLVGGFDIWGQGTMVTVSS VL: IRMTQSPSSLSASVGDRVTITCQASQDITNYLNWYQQKPGKAPKLLLYDASNLETGVPSRFSGSGSGTDFTFTISSLQPEDIATYYCQQYDNLPWTFGQGTKVEIK | 29.1 ng/mL
13 | C094 (antibody, V domains shown) VH: QVQLQESGPGLVKPSETLSLTCNVSGVSISTDYWSWIRQPPGKGLEWIGYIYYSGNTKDYNPSLKSRVTISVDTSKNQFSLMLSSVTAADTAVYYCARHYDILTSLSWFDPWGQGTLVTVSS VL: QSVLTQPPSVSAAPGQKVTISCSITNSNLGNIYVSWYQQLPGTAPKLLIYGNNKRPSGIPDRFSGSKSGTSATLGITGLQTGDEAHYYCGTWDSSLSANWVFGGGTKLTVL | 1.67 ng/mL
14 | C067 (antibody, V domains shown) VH: VQLVESGGGVVQPGRSLRLSCAASGFSFRIFGMNWVRQAPGKGLDWVAGISHDGSDKYFADSVKGRFTISRDNSKNTLYLQMNSLRADDTAVYYCARDMEVDYYDRSGHYHVFHAFDIWGQGTMVTVSS VL: DIVMTQSPDSLAVSLGARATINCKSSQSILYSSDNKSSLAWYQQKPGHPPKLLIYWASTRESGVPDRFSGSESGTDFTLTISNLQGEDVAVYYCQQYYSIPRSFGQGTKLEIK | 6.98 ng/mL
15 | C032 (antibody, V domains shown) VH: EVQLVQSGAEVKKPGESLKISCKGSGYSFTSYWIGWVRQMPGKGLEWMGIIYPGDSDTRYSPSFQGQVTISADKSISTAYLQWSSLKASDTAMYYCARGVAVDWYFDLWGRGTLVTVSS VL: QSVLTQPPSVSGAPGQRVTISCTGSSSNIGAGYDVHWYQQLPGTAPKLLIYGNSNRPSGVPDRFSGSKSGTSASLAITGLQAEDEADYYCQSYDSSLSALYVFGTGTKVTVL | 17.3 ng/mL
16 | C080 (antibody, V domains shown) VH: EVQLVQSGAEVKKPGESLNISCKASGYSFTIYWIAWVRQLPGKGLEWMGIIYPGDSDTRYSPSFQGQVTISADKSISTAYLQWRSLKASDSAVYYCARGVAVDWYFDLWGRGTLVTVSS VL: QSVLTQPPSVSGAPGQRVTISCAGSSSNIGAGFDVYWYQQLPGTAPKLLIYGNNNRPSGVPDRFSGSKSGTSASLAITGLQAEDEADYYCQSSGSVLSDLYVFGTGTKVTVL | 1.97 ng/mL
17 | C518 (antibody, V domains shown) VH: EVQLVESGGGLIQPGGSLRLSCAASGITVSSNYMSWVRQAPGKGLEWVSVMYAGGSSFYADSVKGRFTISRDNSKNTLYLQMNSLRVEDTAVYYCARDLIALGVDVWGQGTTVTVSS VL: DIQLTQSPSFLSASVGDRVTITCRASQGISSYLAWYQQKPGKAPKLLIYAASTLQSGVPSRFSGSGSGTEFTLTISSLQPEDFATYYCQLLNSYPMCSFGQGTKLEIK | 1.13 ng/mL
18 | C066 (antibody, V domains shown) VH: EVQLVESGGGLIQPGGSLRLSCAASGLLVSRNYMTWVRQAPGKGLEWVSVIYSGGSTFYADSVRGRFTISRDNSKNTLYLQMDSLRAEDTAVYYCARDVGDYYGMDVWGQGTTVTVSS VL: DIQLTQSPAFLSASVGDRVTITCRASQGMSNYLAWYQQKPGKAPNLLIYTASTLQSGVPSRFSGSGSGTEFTLTISSLQPEDFATYYCQLLNSYPQLTFGGGTKVEIK | 4.2 ng/mL
19 | C063 (antibody, V domains shown) VH: EVQLVQSGAEVKKPGDSLKISCKASGYSFTRYWIGWVRQMPGKGLDWMGIIYPGDSDTRYSSSFQGQVTISADKSISTAYLQWSSLKASDTSLYYCVRRASSTNFEFWGQGTLVTVSS VL: SYELTQPPSVSVAPGQTATITCGGNNIGSKTVHWYQQKPGQAPVVVVYDDSDRPSGIPERFSGSKSGSTATLTITRVEAGDEADYYCQVWDSTSDHYVFGTGTKVAVI | 414 ng/mL
20 | C521 (antibody, V domains shown) VH: EVQLVESGGGLVRPGGSLTLSCVASGFTVGSNFMSWVRQAPGKGLEWVSLIYNSGGTHYADSVKGRFTISRDRSKNTLYLQMNSLRAEDTAIYYCANHGYYYYMDVWGKGTTVTVS VL: QSALTQPASVSGSPGQSITISCTGTGSDIGAYNYVSWHQHHPGKAPKLIIYDVSNRPSGVSNRFSGSKSGNTASLTISGLQAEDEADYYCTSYTNTTTPWVFGGGTKVTVL | 6.9 ng/mL
21 | C068 (antibody, V domains shown) VH: QVQLVESGGGVVQPGRSLRLSCVASGFSFSTYGMHWVRQAPGKGLEWVALIWSDGSNKYYGDAAEGRFTISRDNSNNTLYLQMNNLRAEDTALYYCARDHSSSSFVYYYYMDVWGKGTTVTVSS VL: QSALTQPRSVSGSPGQSVTISCTGTSSDIGGYNYVSWYQQHPDKAPKFIIFDVSKRPSGVPDRFSGSKSGNTASLTISGLQAEDEADYYCCSYAGPYPYVFGTGTKVTVL | 5.46 ng/mL
